Reference: patent US20140242095A1

Molecular target: human SIRPα V1 expressed on cells (NOR mouse macrophages or CHO cells) (human) (UniProt P78324)
Assay: cell-based binding assay (NOR mouse macrophages)
Design: unit not given beside the values
Settings: Fc fusion

human CD47-Fc fusion protein, sequence (Q08722 19-141): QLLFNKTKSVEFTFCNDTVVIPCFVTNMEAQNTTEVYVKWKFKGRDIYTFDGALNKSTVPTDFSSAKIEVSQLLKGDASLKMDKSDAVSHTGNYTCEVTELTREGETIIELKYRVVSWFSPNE
human SIRPα V1 expressed on cells (NOR mouse macrophages or CHO cells) (human), sequence (P78324 31-504): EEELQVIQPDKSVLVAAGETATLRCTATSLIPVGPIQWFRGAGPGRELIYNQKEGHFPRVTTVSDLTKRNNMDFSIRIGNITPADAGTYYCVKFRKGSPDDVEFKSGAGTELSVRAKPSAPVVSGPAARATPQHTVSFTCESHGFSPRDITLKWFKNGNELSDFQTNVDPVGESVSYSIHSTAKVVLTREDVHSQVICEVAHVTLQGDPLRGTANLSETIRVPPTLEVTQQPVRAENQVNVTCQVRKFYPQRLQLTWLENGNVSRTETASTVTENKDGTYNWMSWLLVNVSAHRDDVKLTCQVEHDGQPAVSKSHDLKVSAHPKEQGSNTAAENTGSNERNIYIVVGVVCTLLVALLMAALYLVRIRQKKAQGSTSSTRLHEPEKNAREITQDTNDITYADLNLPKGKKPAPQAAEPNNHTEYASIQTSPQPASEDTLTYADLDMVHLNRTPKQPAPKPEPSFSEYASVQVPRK

## human CD47-Fc fusion protein (from UniProt Q08722 19-141)
  Kd: 8.7 ?
